What is called Kd is the constant that tells how readily two partners part at equilibrium. A low value points to a tighter complex.

These results are taken from paper PMC5389509.

Data set [1] concerns the target T1, YxiN S108C/N444C (UniProt P42305 1-479, C61A;C267A;S108C;N444C).
T1 sequence: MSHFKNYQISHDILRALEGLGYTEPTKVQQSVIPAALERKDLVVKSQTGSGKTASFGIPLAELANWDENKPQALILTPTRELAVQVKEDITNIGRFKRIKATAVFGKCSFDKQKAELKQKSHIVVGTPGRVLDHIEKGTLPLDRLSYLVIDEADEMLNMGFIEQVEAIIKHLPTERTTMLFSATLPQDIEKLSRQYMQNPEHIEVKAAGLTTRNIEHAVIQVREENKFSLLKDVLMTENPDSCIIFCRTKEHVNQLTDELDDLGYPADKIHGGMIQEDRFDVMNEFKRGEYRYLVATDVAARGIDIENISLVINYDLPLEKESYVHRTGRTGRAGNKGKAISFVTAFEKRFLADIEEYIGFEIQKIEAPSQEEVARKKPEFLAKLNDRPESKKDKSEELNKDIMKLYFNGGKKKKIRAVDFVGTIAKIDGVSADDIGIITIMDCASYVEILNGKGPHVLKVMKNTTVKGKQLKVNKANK
The data set can be described thus: smFRET.

The target in a further data set is T2, YxiN S108C/S229C (UniProt P42305 1-479, C61A;C267A;S108C;S229C).
T2 sequence: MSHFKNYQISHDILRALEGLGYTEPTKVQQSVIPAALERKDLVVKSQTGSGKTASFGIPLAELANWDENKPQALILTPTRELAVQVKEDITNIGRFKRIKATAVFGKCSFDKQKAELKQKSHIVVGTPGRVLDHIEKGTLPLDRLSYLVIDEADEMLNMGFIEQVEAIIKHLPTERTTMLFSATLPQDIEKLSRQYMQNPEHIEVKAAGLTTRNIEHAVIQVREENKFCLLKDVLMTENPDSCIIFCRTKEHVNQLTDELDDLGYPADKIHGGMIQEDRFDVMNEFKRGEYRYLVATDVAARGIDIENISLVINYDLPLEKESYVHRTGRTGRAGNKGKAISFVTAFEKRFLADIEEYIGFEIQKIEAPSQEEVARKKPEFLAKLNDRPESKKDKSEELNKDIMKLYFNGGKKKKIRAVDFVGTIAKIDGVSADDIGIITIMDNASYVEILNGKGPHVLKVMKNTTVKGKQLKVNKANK
The data set can be described thus: smFRET.

Data set [2] deals with T1, YxiN S108C/N444C. The data set can be described thus: fluorescence anisotropy.
In the next data set the target is T3, YxiN S108C/N464C (UniProt P42305 1-479, C61A;C267A;S108C;N464C).
T3 sequence: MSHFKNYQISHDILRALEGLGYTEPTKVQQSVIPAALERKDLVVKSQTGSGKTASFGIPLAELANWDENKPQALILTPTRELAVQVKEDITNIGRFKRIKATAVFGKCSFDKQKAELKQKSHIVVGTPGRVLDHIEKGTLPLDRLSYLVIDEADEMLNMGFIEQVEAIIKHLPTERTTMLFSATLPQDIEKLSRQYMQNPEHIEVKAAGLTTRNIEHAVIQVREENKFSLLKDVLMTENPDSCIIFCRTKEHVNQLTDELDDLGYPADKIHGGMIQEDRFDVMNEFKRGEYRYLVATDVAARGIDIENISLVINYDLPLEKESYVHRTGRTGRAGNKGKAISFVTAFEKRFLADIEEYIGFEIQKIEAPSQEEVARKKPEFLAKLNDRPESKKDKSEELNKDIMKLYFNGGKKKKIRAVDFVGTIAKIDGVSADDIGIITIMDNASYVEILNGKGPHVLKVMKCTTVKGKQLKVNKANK
The data set can be described thus: smFRET.

The target in the next data set is T4, YxiN S108C/D429C (UniProt P42305 1-479, C61A;C267A;S108C;D429C).
T4 sequence: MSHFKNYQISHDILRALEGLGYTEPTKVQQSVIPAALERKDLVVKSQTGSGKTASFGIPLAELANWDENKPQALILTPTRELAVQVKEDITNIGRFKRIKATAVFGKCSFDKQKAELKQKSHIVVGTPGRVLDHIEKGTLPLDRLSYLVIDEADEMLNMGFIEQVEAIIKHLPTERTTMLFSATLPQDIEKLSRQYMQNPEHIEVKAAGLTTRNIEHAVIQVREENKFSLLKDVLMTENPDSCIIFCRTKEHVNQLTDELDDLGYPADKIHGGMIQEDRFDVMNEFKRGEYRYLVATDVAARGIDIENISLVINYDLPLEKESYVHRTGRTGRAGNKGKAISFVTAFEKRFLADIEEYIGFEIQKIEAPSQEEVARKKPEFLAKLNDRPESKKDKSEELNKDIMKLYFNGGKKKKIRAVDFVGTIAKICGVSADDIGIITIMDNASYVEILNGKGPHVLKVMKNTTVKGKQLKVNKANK
The data set can be described thus: smFRET.

Data set [3] deals with T5, YxiN A115C/S229C biotinylated (UniProt P42305 1-479, C61A;C267A;A115C;S229C).
T5 sequence: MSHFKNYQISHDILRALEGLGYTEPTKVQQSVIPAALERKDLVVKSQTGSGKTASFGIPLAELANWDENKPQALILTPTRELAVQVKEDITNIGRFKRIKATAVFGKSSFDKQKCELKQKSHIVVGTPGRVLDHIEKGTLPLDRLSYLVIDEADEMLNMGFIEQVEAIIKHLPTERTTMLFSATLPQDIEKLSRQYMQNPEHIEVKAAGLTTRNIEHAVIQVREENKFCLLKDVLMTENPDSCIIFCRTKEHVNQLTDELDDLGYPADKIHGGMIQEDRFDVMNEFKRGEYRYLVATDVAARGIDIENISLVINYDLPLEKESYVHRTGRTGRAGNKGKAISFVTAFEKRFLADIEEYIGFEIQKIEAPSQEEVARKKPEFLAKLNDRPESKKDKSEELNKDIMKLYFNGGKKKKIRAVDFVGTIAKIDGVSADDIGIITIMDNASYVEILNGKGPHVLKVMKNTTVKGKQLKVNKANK
The data set can be described thus: smFRET.

B1: 32merHairpin (structured_RNA)
RNA: UGGGCUGUUCGCCCAU
For B1, the binding result with YxiN S108C/N444C [1] and in the data set with YxiN S108C/S229C was “binds” each time.

B2: 32mer (FAM) (structured_RNA)
RNA: CGAGGUCCCAAGGGUUGGGCUGUUCGCCCAUU
Molecule B2 came in with a dissociation constant (Kd) with YxiN S108C/N444C [2] of 170 nM.

B3: 32mer (structured_RNA)
RNA: CGAGGUCCCAAGGGUUGGGCUGUUCGCCCAUU
Consider B3, for which the binding result (with YxiN S108C/N464C; with YxiN S108C/D429C; with YxiN S108C/S229C; in data set [3]) was “binds” in each case.
